From patent publication US20150203575A1 (Genentech, published 2015) come the findings set out here.

Sequences and labels used below:
B1: hNPDC1-Fc (Fc fusion)
chain: GHPDVAACPGSLDCALKRRARCPPGAHACGPCLQPFQEDQQGLCVPRMRRPPGGGRPQPRLEDEIDFLAQELARKESGQSTPPLPKDRQRLPEPATLGFSARGQGLELGLPSTPGTPTPTPHTSLGSPVSSDPVHMSPLEPRGGQGD
modifications: sialylated O-glycans
notes: Whole entry named; also called human NPDC1-Fc; hNPDC1 (SPR analyte); not shown: Fc
B2: hNPDC1-His (ligand, not shown: small tags and cut ends)
chain: B1 chain
modifications: Sialylated O-glycans, which the patent says are needed for PILRα binding, cannot be carried by the letters
notes: also called hNPDC1-His (WT); hNPDC1-His (mut) (labels name the immobilised hPILRα form)
B3: human CD99 expressed on 293T cells (ligand, UniProt P14209 23-185, looked up)
chain: DGGFDLSDALPDNENKKPTAIPKKPSAGDDFDLGDAVVDGENDDPRPPNPPKPMPNPNPNHPSSSGSFSDADLADGVSGGEGKGGSDGGGSHRKEGEEADAPGVIPGIVGAVVVAVAGAISSFIAYQKKKLCFKENAEQGEVDMESHRNANAEPAVQRTLLEK
notes: whole, on cells; also called hCD99; hCD99 transfectants
B4: mouse CD99 expressed on 293T cells (ligand, UniProt Q8VCN6 29-175, looked up)
chain: DDFNLGDALEDPNMKPTPKAPTPKKPSGGFDLEDALPGGGGGGAGEKPGNRPQPDPKPPRPHGDSGGISDSDLADAAGQGGGGAGRRGSGDEGGHGGAGGAEPEGTPQGLVPGVVAAVVAAVAGAVSSFVAYQRRRLCFREGGSAPV
modifications: sialylated O-glycans at Thr-45 and Thr-50 (cited as relevant for PILRα recognition)
notes: whole, on cells; also called mCD99; mCD99 transfectants
B5: hPILRαR126A expressed on 293T cells (receptor)
chain: QPSGSTGSGPSYLYGVTQPKHLSASMGGSVEIPFSFYYPWELATAPDVRISWRRGHFHRQSFYSTRPPSIHKDYVNRLFLNWTEGQKSGFLRISNLQKQDQSVYFCAVELDTRSSGRQQWQSIEGTKLSITQAVTTTTQRPSSMTTTWRLSSTTTTTGLRVTQGKRRSDSWHISLETAVGVAVAVTVLGIMILGLICLLRWRRRKGQQRTKATTPAREPFQNTEEPYENIRNEGQNTDPKLNPKDDGIVYASLALSSSTSPRAPPSHRPLKSPQNETLYSVLKA
notes: also called human PILRαR126A; hPILRαR126A transfectants
B6: mCD99-Fc (Fc fusion, mouse, UniProt Q8VCN6 29-137, looked up)
chain: DDFNLGDALEDPNMKPTPKAPTPKKPSGGFDLEDALPGGGGGGAGEKPGNRPQPDPKPPRPHGDSGGISDSDLADAAGQGGGGAGRRGSGDEGGHGGAGGAEPEGTPQG
modifications: three O-glycans NeuAc1-2Hex1HexNAc1
notes: also called mouse CD99-Fc; mCD99 (SPR analyte); not shown: Fc
B7: mPILRαR133A expressed on 293T cells (receptor)
chain: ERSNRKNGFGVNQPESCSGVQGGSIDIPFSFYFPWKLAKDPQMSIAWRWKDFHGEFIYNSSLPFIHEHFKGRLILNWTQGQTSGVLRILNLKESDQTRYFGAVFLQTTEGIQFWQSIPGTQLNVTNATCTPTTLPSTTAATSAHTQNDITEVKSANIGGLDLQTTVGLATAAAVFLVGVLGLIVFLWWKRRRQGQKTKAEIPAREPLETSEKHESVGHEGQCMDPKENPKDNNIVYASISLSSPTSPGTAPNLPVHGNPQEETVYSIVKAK
notes: also called mouse PILRα133A; mPILRαR133A transfectants

The target in experiment [1] is B5. The experiment in a line: flow cytometry, transfected 293T cells, PILRα-positive cells gated. For orientation: Flow cytometry measures light scatter and fluorescence of single cells or particles in a stream.
Experiment [2] deals with B7. Described as above.
Another experiment concerns the target T1, hPILRαR126A-Fc (human; mouse, UniProt Q9UKJ1 20-197).
T1 construct: Arg mutant of hPILRα-Fc; also called hPILRα R126-Fc; mutant hPILRα; not shown: Fc of mouse IgG2a (PILRα-mIgG2a, called PILRα-Fc)
The experiment in a line: SPR, hPILRα R126A-Fc immobilized, response difference. A general note: In SPR one partner is held on a chip, and binding of the other changes the refractive index at the surface.

In another experiment the target is T2, mPILRα-Fc (mouse, UniProt Q2YFS3 32-198).
T2 construct: also called mouse PILRα-Fc; WT mPILRα-Fc; not shown: Fc of mouse IgG2a (PILRα-mIgG2a, called PILRα-Fc)
T2 sequence (Q2YFS3 32-198): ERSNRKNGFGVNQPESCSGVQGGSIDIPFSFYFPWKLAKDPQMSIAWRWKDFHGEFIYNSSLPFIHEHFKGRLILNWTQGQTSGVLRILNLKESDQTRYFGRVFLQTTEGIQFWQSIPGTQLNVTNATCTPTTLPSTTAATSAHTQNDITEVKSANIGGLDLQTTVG
Nature of the experiment: flow cytometry, transfected 293T cells.

The target in a further experiment is T3, hPILRα-Fc (human; mouse, UniProt Q9UKJ1 20-197).
T3 construct: also called human PILRα-Fc; WT hPILRα-Fc; not shown: Fc of mouse IgG2a (PILRα-mIgG2a, called PILRα-Fc)
The experiment in a line: flow cytometry, transfected 293T cells.

Another experiment concerns the target T4, hCOLEC12-his (human, UniProt Q5KU26 59-742, sialylated O-glycans and N-glycans).
T4 construct: Whole entry named; also called human COLEC12-his; hCOLEC12 (SPR); not shown: his tag
Nature of the experiment: flow cytometry, transfected 293T cells, PILRα-positive cells gated.

T4 sequence (Q5KU26 59-742 S522P/G606S limits assumed): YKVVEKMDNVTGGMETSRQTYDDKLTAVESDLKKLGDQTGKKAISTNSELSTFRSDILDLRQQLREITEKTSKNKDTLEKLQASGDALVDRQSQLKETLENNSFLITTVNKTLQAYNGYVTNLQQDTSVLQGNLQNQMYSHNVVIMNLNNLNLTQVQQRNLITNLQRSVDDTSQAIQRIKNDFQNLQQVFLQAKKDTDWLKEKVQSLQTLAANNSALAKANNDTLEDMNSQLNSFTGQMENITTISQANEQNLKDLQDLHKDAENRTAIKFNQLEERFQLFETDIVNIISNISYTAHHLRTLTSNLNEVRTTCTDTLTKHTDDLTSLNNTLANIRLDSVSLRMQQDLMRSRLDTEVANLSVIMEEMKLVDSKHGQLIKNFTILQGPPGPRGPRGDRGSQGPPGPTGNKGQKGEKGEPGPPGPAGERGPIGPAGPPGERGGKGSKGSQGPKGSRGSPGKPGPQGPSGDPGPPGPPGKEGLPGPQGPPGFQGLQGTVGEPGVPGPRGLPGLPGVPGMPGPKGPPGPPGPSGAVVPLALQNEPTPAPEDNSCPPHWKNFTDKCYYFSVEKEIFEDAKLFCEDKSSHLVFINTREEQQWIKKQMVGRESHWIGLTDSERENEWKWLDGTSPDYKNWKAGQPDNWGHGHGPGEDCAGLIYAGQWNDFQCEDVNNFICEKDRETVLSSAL
From the text for hPILRα-Fc: (§1) CD99 expressing cells were gated and their binding to PILRα-Fc was shown.
From the text for mPILRα-Fc: as §1

Consider B1, for which the binding result in experiment [1] and in experiment [2] was “no binding” in each case.

In the case of B2, in the experiment with hPILRαR126A-Fc, the binding result is listed as “no binding (tested: 1 µM)”. For B3, the binding result in the experiment with mPILRα-Fc and in the experiment with hPILRα-Fc was “no binding” in each case. Consider B4, for which the binding result with mPILRα-Fc and with hPILRα-Fc was “binds” each time.

Consider B5, for which, in the experiment with hCOLEC12-his, the binding result is “no binding”. For the molecule B6, the binding result in experiment [1] and in experiment [2] was “no binding” throughout.

B7: in the experiment with hCOLEC12-his, the binding result is on record as “no binding”.
